Assay results published in patent US12723255B2, “Herbicide tolerance genes and methods of use thereof” (priority 2014, dated 2026).
Positions count from the first letter of the chain named.

What was measured:
transgenic maize plants = experiment: trait efficacy field trials with homozygous inbred plants, CTP evaluation; type: in vivo; details: crop injury percentage
Source text: To evaluate different chloroplast targeting peptides (CTP), plant transformation vectors were constructed, each comprising a recombinant DNA molecule optimized for monocot expression and encoding MON-HTI (SEQ ID NO: 16), MON-HT2 (SEQ ID NO:20), and MON-HT8 (SEQ ID NO:39), MON-HT9 (SEQ ID NO:42), or MON-HT10 (SEQ ID NO:45). The vectors were created using the same combination of promoter, leader, intron, and 3′-UTR, but with one of three separate CTPs (A, B, or C) or without a CTP operably linked to the protein-coding sequence. The DNA constructs were used to transform immature maize (LH244) embryos using Agrobacterium tumifaciens and standard methods known in the art. Regenerated RO transgenic plantlets were grown in the green house. The R0 plants were selfed to generate R1 homozygous seed. The R0 plants were also used as the male to cross with inbred plants containing maize event MON89034 to generate segregating F1 hybrid seed for trait efficacy field trials.
Separate trait efficacy field trials for quizalofop-P and 2,4-D were conducted at two locations each with the homozygous inbred transgenic plants (R2 or R4 generation). In these field trials, one of two herbicide treatments was used: (1) quizalofop-P (Assure II) at 0.16 lb ai/acre (2×) plus 0.25% v/v non-ionic surfactant (NIS) applied at V4 growth stage followed by the same at V8 growth stage; or (2) 2,4-D amine at 2 lb ae/acre (2×) plus 0.25% v/v non-ionic surfactant (NIS) applied to V4 followed by V8. Injury ratings (crop injury percentage at V4 (CIPV4) or V8 (CIPV8)) were taken 10 to 14 days after the V4 and V8 applications. Error was calculated using LSD (0.05).

F1 hybrid maize plants = experiment: trait efficacy field trial, 2,4-D pressure screening, F1 hybrid; type: in vivo; details: crop injury percentage; for 4X 2,4-D CIPV4 / 4X 2,4-D CIPV8: 4 lb ae/acre at VE-V2, V4, V8; for 8X 2,4-D CIPV4 / 8X 2,4-D CIPV8: 8 lb ae/acre at VE-V2, V4, V8; for 16X 2,4-D CIPV4 / 16X 2,4-D CIPV8: 16 lb ae/acre at VE-V2, V4, V8
Method: Separate trait efficacy field trials for quizalofop-P and 2,4-D pressure screening were conducted at one location each with F1 hybrid transgenic plants produced by crossing an inbred plant containing maize event MON89034 with an R1 plant containing MON-HT1, MON-HT2, MON-HT8, MON-HT9, and MON-HT10 with and without operably linked CTP sequences. Transgenic F1 hybrid plants containing maize events NK603×MON89034 were used for comparison as a control.
Three herbicide treatments were used in the trait efficacy field trial for 2,4-D tolerance: (1) 2,4-D amine at 4 lb ac/acre (4×) plus 0.25% v/v NIS applied to VE-V2 followed by V4 followed by V8; (2) 2,4-D amine at 8 lb ac/acre (8×) plus 0.25% v/v NIS applied to VE-V2 followed by V4followed by V8 maize; or (3) 2,4-D amine at 16 lb ac/acre (16×) plus 0.25% v/v NIS applied to VE-V2 followed by V4 followed by V8. Plots were visually rated as above.
The injury rating for the control plants after all 2,4-D applications ranged from 80% to 96.25%. At the highest rate of 2,4-D (16×) applied through V8, the plants containing MON-HT1 or MON-HT2 operably linked to any of the three CTPs (A, B, or C) had better tolerance than plants containing MON-HT1 or MON-HT2 not operably linked to a CTP. Plants containing MON-HT1, MON-HT2, or MON-HT8 with or without an operably linked CTP had better tolerance to 2,4-D at all applications tested compared to plants containing either MON-HT9 or MON-HT10 with an operably linked ‘A’ CTP. Over the range of 2,4-D applications the relative ranking of tolerance was: plants containing MON-HT1 had better tolerance than plants containing MON-HT2 which were in turn better than plants containing MON-HT8. […] Error was calculated using LSD (0.05).

[1] = type: biochemical; details: for temperature sensitivity compared with the wild-type enzyme: substrate 2,4-D, lower T1/2 than wild-type
Method: To analyze these engineered proteins for activity in higher temperatures, the in vitro enzyme assay in Example 1 was modified to specify pre-heating all of the assay components to the desired temperature for 5 minutes before combining the components and then maintaining the reaction at the desired temperature for the duration of the reaction. To normalize the assay measurements, quizalofop-P was used as the substrate for the reaction and enzyme activity was normalized based on the 25° C. readings. Using these parameters, the temperature at which the enzyme activity was half of maximum (T1/2) was calculated. The T1/2 for MON-HT55 was calculated to be 29° C., and the T1/2 for wild-type RdpA was calculated to be 38° C. (FIG. 2A).
Enzyme activity over a range of temperatures was analyzed in-depth for MON-HT1, MON-HT2, MON-HT7, and MON-HT8. These assays were conducted as described above. Quizalofop-P or 2,4-D was used as the substrate for these reactions and activity was normalized based on the activity of the wild-type enzyme at 25° C. The activity curves obtained are presented in FIG. 2B (with quizalofop-P as the substrate) and FIG. 2C (with 2,4-D as the substrate). Using quizalofop-P as the substrate, MON-HT55 was the most temperature sensitive, with a T1/2 of 29° C. […] MON-HTI was slightly less temperature sensitive, with a T1/2 about 1° C. higher than the wild-type enzyme.

[2] = system: mRNA transcribed from the transgene cassette; experiment: Quantigene analysis of transgene mRNA expression in leaf samples; details: normalized to maize housekeeping genes, average of eight samples
Source text: Leaf samples were collected from the plants containing transgene cassettes encoding MON-HT1, MON-HT2, and MON-HT8 with and without CTP sequences to determine expression of the mRNA transcribed from the transgene cassette encoding the engineered proteins. Quantigene® analysis was done on the leaf sample extracts to determine mRNA expression of the transgene cassette. For these assays, the probe was to the common 3′-UTR sequence present in each expression cassette used to generate the transgenic plants. Relative expression was calculated by normalizing to maize housekeeping genes. A leaf sample was collected from each of eight plants for each construct configuration used to make the transgenic plants, and the reported relative mRNA expression data is an average of the eight samples with standard error.

[3] = CTP A, 0.16 lb ai/acre at V4, V8, LSD (0.05) = 1.45
[4] = CTP A, 0.16 lb ai/acre at V4, V8, LSD (0.05) = 2.2
[5] = CTP A, 2 lb ae/acre at V4, V8, LSD (0.05) = 0.95
[6] = CTP A, 2 lb ae/acre at V4, V8, LSD (0.05) = 1.6
[7] = CTP B, 0.16 lb ai/acre at V4, V8
[8] = CTP C, 0.16 lb ai/acre at V4, V8
[9] = no CTP, 0.16 lb ai/acre at V4, V8

B1: MON-HT8: engineered oxygenase protein, amino acid sequence SEQ ID NO:37 (protein)
chain: MHAALTPLTNKYRFIDVQPLTGVLGAEITGVDLREPLDDSTWNEILDAFHTYQVIYFPGQAITNEQHIAFSRRFGPVDPVPILKSIEGYPEVQMIRREANESGRVIGDDWHTDSTFLDAPPAAVVMRAIEVPEYGGDTGFLSMYSAWETLSPTMQATIEGLNVVHSATKVFGSLYQATNWRFSNTSVKVMDVDAGDRETVHPLVVTHPVTGRRALYCNQVYCQKIQGMTDAESKSLLQFLYEHATKFDFTCRVRWKKDQVLVWDNLCTMHRSVPDYGNAFRYLTRTTVAGDKPSR
- 2X Quizalofop-P CIPV4 (transgenic maize plants; [3]): 0
- 2X Quizalofop-P CIPV8 (transgenic maize plants; [4]): 1.25
- 2X 2,4-D CIPV4 (transgenic maize plants; [5]): 1.75
- 2X 2,4-D CIPV8 (transgenic maize plants; [6]): 1.25
- 2X Quizalofop-P CIPV4 (transgenic maize plants; [7]): 0.75
- 2X Quizalofop-P CIPV8 (transgenic maize plants; [7]): 2.5
- 2X 2,4-D CIPV4 (transgenic maize plants; CTP B, 2 lb ae/acre at V4, V8): 0
- 2X 2,4-D CIPV8 (transgenic maize plants; CTP B, 2 lb ae/acre at V4, V8): 1.25
- 2X Quizalofop-P CIPV4 (transgenic maize plants; [8]): 0
- 2X Quizalofop-P CIPV8 (transgenic maize plants; [8]): 1.25
- 2X 2,4-D CIPV4 (transgenic maize plants; CTP C, 2 lb ae/acre at V4, V8): 1.25
- 2X 2,4-D CIPV8 (transgenic maize plants; CTP C, 2 lb ae/acre at V4, V8): 0
- 4X 2,4-D CIPV4 (F1 hybrid maize plants; CTP A): 7.5
- 4X 2,4-D CIPV8 (F1 hybrid maize plants; CTP A): 5
- 8X 2,4-D CIPV4 (F1 hybrid maize plants; CTP A): 10
- 8X 2,4-D CIPV8 (F1 hybrid maize plants; CTP A): 12.5
- 16X 2,4-D CIPV4 (F1 hybrid maize plants; CTP A): 15
- 16X 2,4-D CIPV8 (F1 hybrid maize plants; CTP A): 30
- 4X 2,4-D CIPV4 (F1 hybrid maize plants; CTP B): 5
- 4X 2,4-D CIPV8 (F1 hybrid maize plants; CTP B): 7.5
- 8X 2,4-D CIPV4 (F1 hybrid maize plants; CTP B): 10
- 8X 2,4-D CIPV8 (F1 hybrid maize plants; CTP B): 27.5
- 16X 2,4-D CIPV4 (F1 hybrid maize plants; CTP B): 10
- 16X 2,4-D CIPV8 (F1 hybrid maize plants; CTP B): 20
- 4X 2,4-D CIPV4 (F1 hybrid maize plants; CTP C): 10
- 4X 2,4-D CIPV8 (F1 hybrid maize plants; CTP C): 7.5
- 8X 2,4-D CIPV4 (F1 hybrid maize plants; CTP C): 10
- 8X 2,4-D CIPV8 (F1 hybrid maize plants; CTP C): 17.5
- 16X 2,4-D CIPV4 (F1 hybrid maize plants; CTP C): 17.5
- 16X 2,4-D CIPV8 (F1 hybrid maize plants; CTP C): 25
- T1/2, temperature at which the enzyme activity was half of maximum [1]: 41 °C
- temperature sensitivity compared with the wild-type enzyme [1]: slightly more temperature sensitive
- Relative Expression ([2]; CTP A): 8.06
- Relative Expression ([2]; CTP B): 7.62
- Relative Expression ([2]; CTP C): 4.87

B2: MON-HT2: engineered oxygenase protein, amino acid sequence SEQ ID NO:18 (protein)
chain: B1 chain with I82L, G103S, T112S, S272A, V273A, G277A, N278G, A279K
- 2X Quizalofop-P CIPV4 (transgenic maize plants; [3]): 0
- 2X Quizalofop-P CIPV8 (transgenic maize plants; [4]): 1.875
- 2X 2,4-D CIPV4 (transgenic maize plants; [5]): 0.875
- 2X 2,4-D CIPV8 (transgenic maize plants; [6]): 1.25
- 2X Quizalofop-P CIPV4 (transgenic maize plants; [7]): 0
- 2X Quizalofop-P CIPV8 (transgenic maize plants; [7]): 0
- 2X 2,4-D CIPV4 (transgenic maize plants; CTP B, 2 lb ae/acre at V4, V8): 0
- 2X 2,4-D CIPV8 (transgenic maize plants; CTP B, 2 lb ae/acre at V4, V8): 2.5
- 2X Quizalofop-P CIPV4 (transgenic maize plants; [8]): 0
- 2X Quizalofop-P CIPV8 (transgenic maize plants; [8]): 2
- 2X 2,4-D CIPV4 (transgenic maize plants; CTP C, 2 lb ae/acre at V4, V8): 0
- 2X 2,4-D CIPV8 (transgenic maize plants; CTP C, 2 lb ae/acre at V4, V8): 1.25
- 2X Quizalofop-P CIPV4 (transgenic maize plants; [9]): 1.25
- 2X Quizalofop-P CIPV8 (transgenic maize plants; [9]): 3.5
- 2X 2,4-D CIPV4 (transgenic maize plants; no CTP, 2 lb ae/acre at V4, V8): 0
- 2X 2,4-D CIPV8 (transgenic maize plants; no CTP, 2 lb ae/acre at V4, V8): 2.5
- 4X 2,4-D CIPV4 (F1 hybrid maize plants; CTP A): 5
- 4X 2,4-D CIPV8 (F1 hybrid maize plants; CTP A): 5
- 8X 2,4-D CIPV4 (F1 hybrid maize plants; CTP A): 10
- 8X 2,4-D CIPV8 (F1 hybrid maize plants; CTP A): 7.5
- 16X 2,4-D CIPV4 (F1 hybrid maize plants; CTP A): 10
- 16X 2,4-D CIPV8 (F1 hybrid maize plants; CTP A): 20
- 4X 2,4-D CIPV4 (F1 hybrid maize plants; CTP B): 5
- 4X 2,4-D CIPV8 (F1 hybrid maize plants; CTP B): 5
- 8X 2,4-D CIPV4 (F1 hybrid maize plants; CTP B): 5
- 8X 2,4-D CIPV8 (F1 hybrid maize plants; CTP B): 10
- 16X 2,4-D CIPV4 (F1 hybrid maize plants; CTP B): 10
- 16X 2,4-D CIPV8 (F1 hybrid maize plants; CTP B): 25
- 4X 2,4-D CIPV4 (F1 hybrid maize plants; CTP C): 10
- 4X 2,4-D CIPV8 (F1 hybrid maize plants; CTP C): 15
- 8X 2,4-D CIPV4 (F1 hybrid maize plants; CTP C): 10
- 8X 2,4-D CIPV8 (F1 hybrid maize plants; CTP C): 10
- 16X 2,4-D CIPV4 (F1 hybrid maize plants; CTP C): 15
- 16X 2,4-D CIPV8 (F1 hybrid maize plants; CTP C): 20
- 4X 2,4-D CIPV4 (F1 hybrid maize plants; no CTP): 7.5
- 4X 2,4-D CIPV8 (F1 hybrid maize plants; no CTP): 7.5
- 8X 2,4-D CIPV4 (F1 hybrid maize plants; no CTP): 17.5
- 8X 2,4-D CIPV8 (F1 hybrid maize plants; no CTP): 42.5
- 16X 2,4-D CIPV4 (F1 hybrid maize plants; no CTP): 25
- 16X 2,4-D CIPV8 (F1 hybrid maize plants; no CTP): 45
- T1/2, temperature at which the enzyme activity was half of maximum [1]: 46 °C
- temperature sensitivity compared with the wild-type enzyme [1]: slightly more temperature sensitive
- Relative Expression ([2]; CTP A): 6.96
- Relative Expression ([2]; CTP B): 6.16
- Relative Expression ([2]; CTP C): 4.11
- Relative Expression ([2]; no CTP): 4.66
